# Experimental data from article PMC11322411.
# Target: GRK2-phosphorylated FLAG-tagged SMOOTHENED (near-full-length mouse SMO, residues 64-674) (mouse) (UniProt P56726)
# Test: pull-down; purified FLAG-SMO forms (18.2 uM) mixed with PKA-C (10 uM), captured on anti-FLAG M1 sepharose beads, 4°C 2 h; 20 mM HEPES pH 7.5, 150 mM NaCl, 3 mM CaCl2, 10 mM MgCl2, 1 mM ATP, 0.025% GDN, 1 uM SAG21k; eluted with FLAG peptide and EDTA; stain-free SDS-PAGE, densitometry
# Sequence of UniProt P56726 (P56726 64-674): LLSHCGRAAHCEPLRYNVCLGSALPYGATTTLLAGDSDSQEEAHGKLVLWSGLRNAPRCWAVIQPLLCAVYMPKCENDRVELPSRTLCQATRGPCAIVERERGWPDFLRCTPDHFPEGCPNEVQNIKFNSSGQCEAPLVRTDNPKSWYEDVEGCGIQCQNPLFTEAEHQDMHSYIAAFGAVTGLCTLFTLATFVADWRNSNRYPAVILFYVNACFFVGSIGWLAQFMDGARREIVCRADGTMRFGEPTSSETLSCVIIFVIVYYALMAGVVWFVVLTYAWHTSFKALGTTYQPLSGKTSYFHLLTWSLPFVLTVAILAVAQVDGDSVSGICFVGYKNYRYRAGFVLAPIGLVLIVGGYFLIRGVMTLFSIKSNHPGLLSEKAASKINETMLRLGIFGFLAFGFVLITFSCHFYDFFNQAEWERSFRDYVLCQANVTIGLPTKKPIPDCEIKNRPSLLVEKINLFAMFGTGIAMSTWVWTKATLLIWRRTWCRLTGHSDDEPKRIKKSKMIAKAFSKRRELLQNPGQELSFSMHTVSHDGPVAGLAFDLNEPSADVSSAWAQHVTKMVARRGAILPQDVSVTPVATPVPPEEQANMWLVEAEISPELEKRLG
substance,measurement,value
"protein kinase A catalytic subunit (PKA-C), mouse (from UniProt P05132 1-351) (enzyme)",PKA-C in the FLAG elution as percent of SMO,25%
